We go through 52 molecules from patent US20130287807A1, “COMPOUNDS FOR TREATING SYMPTOMS ASSOCIATED WITH PARKINSON'S DISEASE” (priority 2008, published 2013).

First the molecules themselves.
B1: p4750 (peptide)
peptide: APIQFRHC
B2: p4755 (peptide)
peptide: SQSYFKHC
B3: p4749 (peptide)
peptide: SNFRHSVC
B4: p4752 (peptide)
peptide: NSSELRHC
B5: p4684 (peptide)
peptide: GQILFPVC
B6: p4667 (peptide)
peptide: NDAKIVFC
B7: p4670 (peptide)
peptide: HMRLFFNC
B8: p4696 (peptide)
peptide: GEIRFGSC
B9: p4676 (peptide)
peptide: GEMQFFIC
B10: p4690 (peptide)
peptide: GQLKFPFC
B11: p4671 (peptide)
peptide: GEMWFALC
B12: p4674 (peptide)
peptide: SHQRLWFC
B13: p4677 (peptide)
peptide: GELYFRAC
B14: p4694 (peptide)
peptide: GQIKFAQC
B15: p4699 (peptide)
peptide: GEIQFGAC
B16: p4693 (peptide)
peptide: THQRLWFC
B17: p4678 (peptide)
peptide: GEIRFALC
B18: p4680 (peptide)
peptide: GEIWFEGC
B19: p4669 (peptide)
peptide: GQIRFDHC
B20: p4686 (peptide)
peptide: GQIMFPRC
B21: p4673 (peptide)
peptide: GELWFPC
B22: p4683 (peptide)
peptide: GDLKFPLC
B23: p4689 (peptide)
peptide: GEILFGMC
B24: p4697 (peptide)
peptide: GQIQFPLC
B25: p4681 (peptide)
peptide: GEIYFERC
B26: p4687 (peptide)
peptide: HMRMYFEC
B27: p4698 (peptide)
peptide: GEIKFDHC
B28: p4675 (peptide)
peptide: HQKMIFAC
B29: p4672 (peptide)
peptide: GELQFPPC
B30: p4685 (peptide)
peptide: GELFFPKC
B31: p4679 (peptide)
peptide: GMIVFPHC
B32: p4705 (peptide)
peptide: YSMRHDAC
B33: p4717 (peptide)
peptide: APMYFPHC
B34: p4711 (peptide)
peptide: QVMRHHAC
B35: p4704 (peptide)
peptide: VELRHSRC
B36: p4732 (peptide)
peptide: SAMRHSLC
B37: p4721 (peptide)
peptide: SLMRHSSC
B38: p4727 (peptide)
peptide: NELFKHFC
B39: p4736 (peptide)
peptide: TGLMFKHC
B40: p4735 (peptide)
peptide: ATFRHSTC
B41: p4739 (peptide)
peptide: AEFMHSVC
B42: p4718 (peptide)
peptide: TYFSHSLC
B43: p4716 (peptide)
peptide: ATFRHSPC
B44: p4729 (peptide)
peptide: SQYFPRPC
B45: p4708 (peptide)
peptide: SSSFFPRC
B46: p4706 (peptide)
peptide: AANYFPRC
B47: p4703 (peptide)
peptide: DTYFPRSC
B48: p4731 (peptide)
peptide: MLPFRHGC
B49: p4737 (peptide)
peptide: AEFSHWHC
B50: p4742 (peptide)
peptide: IGFRHDSC
B51: p4734 (peptide)
peptide: LQFKHSTC
B52: p4751 (peptide)
peptide: AYFPHTSC

The target in the first assay is monoclonal antibody MV-001. Description: ELISA on peptide-BSA; code 3 = strong binding, OD halfmax 1:>20000.
In the case of B1, the OD halfmax 1:X (dilution factor of the parental antibody at half-maximal OD) (dilutionfactor(1:x)) was greater than 20000. Same read-out and setting: for B2 the value was greater than 20000; for B3, greater than 20000. B4: the OD halfmax 1:X (dilution factor of the parental antibody at half-maximal OD) (dilutionfactor(1:x)) was greater than 20000.

In the next assay the target is monoclonal antibody MV-002. Description: ELISA on peptide-BSA; code 3 = strong binding, OD halfmax 1:>320000.
With B5, the OD halfmax dilution factor of the parental antibody (1:X) (dilutionfactor(1:x)) was greater than 320000. For B6, the OD halfmax dilution factor of the parental antibody (1:X) (dilutionfactor(1:x)) was greater than 320000. On to B7, for which the OD halfmax dilution factor of the parental antibody (1:X) (dilutionfactor(1:x)) is greater than 320000. With B8, the OD halfmax dilution factor of the parental antibody (1:X) (dilutionfactor(1:x)) was greater than 320000. Consider B9, for which the OD halfmax dilution factor of the parental antibody (1:X) (dilutionfactor(1:x)) was greater than 320000.

As for B10, the OD halfmax dilution factor of the parental antibody (1:X) (dilutionfactor(1:x)) is greater than 320000.

Regarding B11, the OD halfmax dilution factor of the parental antibody (1:X) (dilutionfactor(1:x)) was greater than 320000. Consider B12, for which the OD halfmax dilution factor of the parental antibody (1:X) (dilutionfactor(1:x)) was greater than 320000. Turning to B13, the OD halfmax dilution factor of the parental antibody (1:X) (dilutionfactor(1:x)) was greater than 320000. Consider B14, for which the OD halfmax dilution factor of the parental antibody (1:X) (dilutionfactor(1:x)) was greater than 320000. Regarding B15, the OD halfmax dilution factor of the parental antibody (1:X) (dilutionfactor(1:x)) was greater than 320000. On to B16, for which the OD halfmax dilution factor of the parental antibody (1:X) (dilutionfactor(1:x)) was greater than 320000. In the case of B17, the OD halfmax dilution factor of the parental antibody (1:X) (dilutionfactor(1:x)) was greater than 320000. Regarding B18, the OD halfmax dilution factor of the parental antibody (1:X) (dilutionfactor(1:x)) was greater than 320000.

Consider B19, for which the OD halfmax dilution factor of the parental antibody (1:X) (dilutionfactor(1:x)) is greater than 320000. On to B20, for which the OD halfmax dilution factor of the parental antibody (1:X) (dilutionfactor(1:x)) is greater than 320000.

Consider B21, for which the OD halfmax dilution factor of the parental antibody (1:X) (dilutionfactor(1:x)) was greater than 320000. For the molecule B22, the OD halfmax dilution factor of the parental antibody (1:X) (dilutionfactor(1:x)) was greater than 320000.

Regarding B23, the OD halfmax dilution factor of the parental antibody (1:X) (dilutionfactor(1:x)) is greater than 320000. In the case of B24, the OD halfmax dilution factor of the parental antibody (1:X) (dilutionfactor(1:x)) is greater than 320000. Regarding B25, the OD halfmax dilution factor of the parental antibody (1:X) (dilutionfactor(1:x)) is greater than 320000. For B26, the OD halfmax dilution factor of the parental antibody (1:X) (dilutionfactor(1:x)) is greater than 320000. With B27, the OD halfmax dilution factor of the parental antibody (1:X) (dilutionfactor(1:x)) was greater than 320000.

As to B28, the OD halfmax dilution factor of the parental antibody (1:X) (dilutionfactor(1:x)) was greater than 320000.

As to B29, the OD halfmax dilution factor of the parental antibody (1:X) (dilutionfactor(1:x)) is greater than 320000.

For the molecule B30, the OD halfmax dilution factor of the parental antibody (1:X) (dilutionfactor(1:x)) was greater than 320000. With B31, the OD halfmax dilution factor of the parental antibody (1:X) (dilutionfactor(1:x)) is greater than 320000.

The target in the next assay is monoclonal antibody MV-001. Description: ELISA on peptide-BSA; code 2 = medium binding, OD halfmax 1:4000-20000.
B32: the OD halfmax 1:X (dilution factor of the parental antibody at half-maximal OD) (dilutionfactor(1:x)) is 4000 to 20000. As for B33, the OD halfmax 1:X (dilution factor of the parental antibody at half-maximal OD) (dilutionfactor(1:x)) was 4000 to 20000. B34: the OD halfmax 1:X (dilution factor of the parental antibody at half-maximal OD) (dilutionfactor(1:x)) fell in the range of 4000 to 20000. On to B35, for which the OD halfmax 1:X (dilution factor of the parental antibody at half-maximal OD) (dilutionfactor(1:x)) is 4000 to 20000. On the same count and under the same terms, as for B36, the figure is 4000 to 20000. Regarding B37, the OD halfmax 1:X (dilution factor of the parental antibody at half-maximal OD) (dilutionfactor(1:x)) was in the range of 4000 to 20000. For B38, the OD halfmax 1:X (dilution factor of the parental antibody at half-maximal OD) (dilutionfactor(1:x)) lay within 4000 to 20000. On the same count and under the same terms, as for B39, the figure is 4000 to 20000. As to B40, the OD halfmax 1:X (dilution factor of the parental antibody at half-maximal OD) (dilutionfactor(1:x)) lay within 4000 to 20000. As to B41, the OD halfmax 1:X (dilution factor of the parental antibody at half-maximal OD) (dilutionfactor(1:x)) fell in the range of 4000 to 20000. As for B42, the OD halfmax 1:X (dilution factor of the parental antibody at half-maximal OD) (dilutionfactor(1:x)) is 4000 to 20000. For B43, the OD halfmax 1:X (dilution factor of the parental antibody at half-maximal OD) (dilutionfactor(1:x)) was 4000 to 20000.

With B44, the OD halfmax 1:X (dilution factor of the parental antibody at half-maximal OD) (dilutionfactor(1:x)) lay in the range of 4000 to 20000. Same read-out and setting: as for B45, the figure is 4000 to 20000. Regarding B46, the OD halfmax 1:X (dilution factor of the parental antibody at half-maximal OD) (dilutionfactor(1:x)) is 4000 to 20000. On to B47, for which the OD halfmax 1:X (dilution factor of the parental antibody at half-maximal OD) (dilutionfactor(1:x)) was in the range of 4000 to 20000. For the molecule B48, the OD halfmax 1:X (dilution factor of the parental antibody at half-maximal OD) (dilutionfactor(1:x)) lay in the range of 4000 to 20000. As to B49, the OD halfmax 1:X (dilution factor of the parental antibody at half-maximal OD) (dilutionfactor(1:x)) is 4000 to 20000. Still for that read-out and setting: as for B50, the figure is 4000 to 20000. For B51, the OD halfmax 1:X (dilution factor of the parental antibody at half-maximal OD) (dilutionfactor(1:x)) is 4000 to 20000. On to B52, for which the OD halfmax 1:X (dilution factor of the parental antibody at half-maximal OD) (dilutionfactor(1:x)) was in the range of 4000 to 20000.
